Data from patent US20240398896A1, “INFLAMMASOME INHIBITION” (National University of Singapore, priority 2021, published 2024).

T1: NLRP3 inflammasome (Mus musculus, UniProt Q9EPB4)
T1 sequence (Q9EPB4 1-193): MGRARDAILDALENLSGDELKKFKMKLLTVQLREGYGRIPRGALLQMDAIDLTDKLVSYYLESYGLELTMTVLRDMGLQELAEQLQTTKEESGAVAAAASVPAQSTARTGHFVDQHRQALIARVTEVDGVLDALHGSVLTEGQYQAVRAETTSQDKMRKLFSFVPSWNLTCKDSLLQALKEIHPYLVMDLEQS


Legend:
[1] = system: SARS-COV-2 immune complex-induced inflammasome activation; test: SARS-COV-2 immune complex-induced inflammasome activation in human monocytes; type: cell-based; details: 50 μM MCC950, 18 h
[2] = rheumatoid arthritis; cited from earlier work
NLRP3 inflammasome [3] = molecular target: T2, NLRP3 inflammasome (Homo sapiens, UniProt Q9ULZ3); test: ASC speck and filament formation in HEK293T cells reconstituted with human NLRP3-mCitrine and human ASC-mPlum (ImageStream, confocal); type: cell-based; set-up: expressed in transfected cells; host or cells: HEK293T; details: HEK293T; for ASC2 filament formation / distribution: ImageStream and confocal
Protocol: (§1) Inflammasome activation assays.
ImageStream imaging flow cytometry. […] Nuclei were stained with DAPI.
Confocal imaging. […] At 48 h post-transfection, cells were fixed with 10% formalin for 15 min at room temperature. DAPI (1:2000 dilution) was used for nuclear staining. All samples were then mounted and examined using the Leica TCS SP8 confocal microscope.

human ASC = molecular target: T3, human ASC (Homo sapiens, UniProt Q9ULZ3); test: Co-immunoprecipitation of ASC2-His with human ASC-Flag from HEK293T cells; type: binding; details: 0.25 μg bat or hupa4 ASC2 vs 3 μg human ASC2 transfected, FIG. 26A
T3 construct: expressed in transfected cells; host or cells: HEK293T
Protocol: (§2) Co-immunoprecipitation. HEK293T cells were transfected in 6-well plate with plasmids encoding His-tagged empty vector (His alone), bat ASC2, human ASC2, and Hupa4 ASC2 along with Flag-tagged human or bat ASC. 3 μg human ASC2, in contrast to 0.25 μg control, bat or hupa4 ASC2, were transfected to normalize the expression. At 48 h post-transfection, cells were lysed in IP lysis buffer (Pierce) according to manufacturer's protocol and centrifuged at 500 g for 10 minutes at 4° C. The supernatants were subjected to immunoprecipitation by incubation for 16 hours at 4° C. with anti-Flag (Sigma) incubated magnetic beads, followed by washing three times with TBS containing 0.05% Tween 20 and once with purified water. Bound proteins were separated by 15% SDS-PAGE, followed by immunoblotting analysis with the indicated antibodies.

bat ASC = test: Co-immunoprecipitation of ASC2-His with bat ASC-Flag from HEK293T cells; type: binding; details: 0.25 μg bat or hupa4 ASC2 vs 3 μg human ASC2 transfected, FIG. 26B
Protocol: as §2

NLRP3 inflammasome [4] = molecular target: T1, NLRP3 inflammasome; test: Inflammasome activation in LPS-primed mouse immortalized macrophages (iMACs) stably expressing ASC2, stimulated with nigericin; type: cell-based; set-up: endogenous in cells; host or cells: BMDMs of C57BL/6 wild-type and bat ASC2/rtTA mice; details: iMACs stably expressing equal ASC2-LSSmOrange, LPS 3 h, FIG. 11J, 11K
Text: (§3) Generation of THP-1 and IMACs stable cells. […] Single cell clones were generated for THP-1 cells stably expressing ASC2-LSSmOrange.
as §1

NLRP3 inflammasome [5] = molecular target: T2, NLRP3 inflammasome; test: Inflammasome activation in LPS-primed THP-1 macrophages stably expressing ASC2, stimulated with nigericin; type: cell-based; set-up: endogenous in cells; host or cells: THP-1 macrophages (PMA-differentiated, LPS-primed); details: THP-1 macrophages stably expressing equal ASC2-mCitrine, LPS 3 h, nigericin 2 h; FIG. 11L, 11M
Text: as §3, §1
ImageStream imaging flow cytometry.

T2 sequence (Q9ULZ3 whole entry): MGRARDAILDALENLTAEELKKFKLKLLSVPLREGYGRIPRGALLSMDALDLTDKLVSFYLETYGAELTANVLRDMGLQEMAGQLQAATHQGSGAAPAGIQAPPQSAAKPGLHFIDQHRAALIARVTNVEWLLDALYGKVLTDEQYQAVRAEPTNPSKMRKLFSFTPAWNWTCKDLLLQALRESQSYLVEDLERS
T3 sequence (Q9ULZ3 whole entry): as above

| Molecule | Cell death (LDH release) ([1]; 100 ng/ml Pam3CSK4, immune complexes, FIG. 10M) | IL-1β secretion ([1]; Pam3CSK4 priming, immune complexes, FIG. 10I) | Reason for discontinuation after phase II clinical trials [2] | ASC2 filament formation / distribution (NLRP3 inflammasome [3]) | Co-localization with human ASC (NLRP3 inflammasome [3]; imaging, FIG. 3A) | Interaction with human ASC (co-IP) (human ASC) | Interaction with bat ASC (co-IP) (bat ASC) | ASC speck formation (human NLRP3 inflammasome activation) (NLRP3 inflammasome [3]; human NLRP3-mCitrine, human ASC-mPlum, 50 ng ASC2-LSSmOrange, 48 h post-transfection) | Inflammasome inhibition (LDH release and IL-1β secretion) (NLRP3 inflammasome [4]) | Inflammasome inhibition (LDH release and IL-1β secretion) (NLRP3 inflammasome [5]) |
| --- | --- | --- | --- | --- | --- | --- | --- | --- | --- | --- |
| CC(C)(O)c1coc(S(=O)(=O)NC(=O)Nc2c3c(cc4c2CCC4)CCC3)c1 [MCC950] | abolished | abolished | liver toxicity |  |  |  |  |  |  |  |
| human ASC2: wildtype human ASC2, 89 amino acids, SEQ ID NO:7 (protein) MGTKREAILKVLENLTPEELKKFKMKLGTVPLREGFERIPRGALGQLDIVDLTDKLVASYYEDYAAELVVAVLRDMRMLEEAARLQRAA |  |  |  | diffusely distributed | not between human ASC2 and human ASC |  |  |  |  |  |
| hupa4 ASC2: human ASC2 with 4 key sites substituted simultaneously with the ones in bat ASC2, SEQ ID NO:6 (protein) MGTKREAILEVLENLTPEELKKFKMKLGTVPLREGFRRIPRGALGQLDIVDLTDKLVASYCEDYAAELVVAVLRDMGMLEEAARLQRAA |  |  |  | form filaments |  | interact strongly with human ASC | interact with bat ASC more strongly than human ASC2 | gained the ability to inhibit NLRP3 inflammasome | gain-of-function | gain-of-function |
